Source: paper PMC10661072

Experiments:
[1] = target: recombinant core spidroin eADF4(C16) (Araneus diadematus (engineered mimic of its fibroin 4 core domain)); experiment: turbidity at 340 nm (fibrillization kinetics), global fit with AmyloFit; 10-40 uM eADF4(C16) in 150 mM NaF, 20 C, without and with 0.5% (w/w) pre-formed seeds; secondary nucleation model, nc set to 2 and n2 to 1; monomers to fibrils
[2] = target: recombinant core spidroin eADF4(C16) (Araneus diadematus (engineered mimic of its fibroin 4 core domain)); experiment: turbidity at 340 nm (fibrillization kinetics), global fit with AmyloFit; 10-40 uM eADF4(C16) in 150 mM Na2SO4, 20 C, without and with 0.5% (w/w) pre-formed seeds; secondary nucleation model, nc set to 2 and n2 to 1; monomers to fibrils

k2 (rate constant of secondary nucleation) [1]: 0.598 M⁻¹ s⁻¹
k+ (rate constant of fibril elongation) [1]: 7.26e+07 M⁻¹ s⁻¹
k+k2 (elongation x secondary nucleation, combined rate parameter) [1]: 3.34e+07 M^−2 s^−2
k+kn (elongation x primary nucleation, combined rate parameter) [1]: 420000 M^−2 s^−2
kn (rate constant of primary nucleation) [1]: 0.00585 M⁻¹ s⁻¹
k2 (rate constant of secondary nucleation) [2]: 7.08 M⁻¹ s⁻¹
k+ (rate constant of fibril elongation) [2]: 2.85e+07 M⁻¹ s⁻¹
k+k2 (elongation x secondary nucleation, combined rate parameter) [2]: 9.04e+07 M^−2 s^−2
k+kn (elongation x primary nucleation, combined rate parameter) [2]: 1.35e+06 M^−2 s^−2
kn (rate constant of primary nucleation) [2]: 1.42 M⁻¹ s⁻¹
Substance: recombinant core spidroin eADF4(C16)
